How the values were obtained:
TRAP150 = TRAP150 (UniProt Q9Y2W1); test: anti-Flag co-IP, TRAP150 blot; conditions: reference: wild type Flag-PSF; sites T687
BTF = BTF (UniProt Q9NYF8); test: anti-Flag co-IP, BTF blot; conditions: reference: wild type Flag-PSF; sites T687

For PSF (from UniProt P23246) T687A, the “binding against the reference” value (TRAP150) was “weaker” and the “binding against the reference” value (BTF) was “weaker”.

From paper PMC2954053
